Test results: patent US20250250357A1 (NANJING ZAIMING PHARMACEUTICAL, published 2025)

Key:
[1] = biological target: T1, human MSLN-R2-his protein (human, UniProt Q13421 391-486); assay: ELISA on coated antigen, antibody 0.01 nM
T1 construct: Self-made in HEK293E cells; also called human MSLN-R2 protein; hMSLN-R2-his; not shown: His tag

[2] = biological target: T2, human MSLN-R3-3 polypeptide (human); assay: ELISA on coated antigen, no antibody (column none)
T2 construct: also called human MSLN-R3-3 protein; hMSLN-R3-3
Description: (§1) The plate was sealed with a plastic film and incubated at 4° C. overnight. The next day, the plate was washed twice with PBST, and a blocking buffer [PBS+2% (w/w) BSA] was added for blocking at room temperature for 2 h. The blocking buffer was discarded, and a chimeric antibody or negative control antibody serially diluted from 100 nM was added at 50 μL/well. After incubation at 37° C. for 2 h, the plate was washed 3 times with PBST. […] After incubation at 37° C. for 2 h, the plate was washed 5 times with PBST. A TMB substrate was added at 50 μL/well for incubation at room temperature for 5-10 min, and then a stop solution (1.0 N HCl) was added at 50 μL/well.

[3] = biological target: T1, human MSLN-R2-his protein; assay: ELISA on coated antigen, antibody 1 nM
Description: as §1

[4] = biological target: T3, human MSLN-R3-his protein (human, UniProt Q13421 487-598); assay: ELISA on coated antigen, antibody 0.0001 nM
T3 construct: Self-made in HEK293E cells; also called human MSLN-R3 protein; hMSLN-R3-his; not shown: His tag

[5] = biological target: T3, human MSLN-R3-his protein; assay: ELISA on coated antigen, no antibody (column none)
Description: as §1

[6] = biological target: T3, human MSLN-R3-his protein; assay: ELISA on coated antigen, antibody 0.1 nM
Description: as §1

[7] = biological target: T1, human MSLN-R2-his protein; assay: ELISA on coated antigen, antibody 10 nM
Description: as §1

[8] = biological target: T2, human MSLN-R3-3 polypeptide; assay: ELISA on coated antigen, antibody 1 nM
Description: as §1

[9] = biological target: T1, human MSLN-R2-his protein; assay: ELISA on coated antigen, antibody 100 nM
Description: as §1

[10] = biological target: T3, human MSLN-R3-his protein; assay: ELISA on coated antigen, antibody 10 nM
Description: as §1

[11] = biological target: T2, human MSLN-R3-3 polypeptide; assay: ELISA on coated antigen, antibody 0.01 nM
Description: as §1

[12] = biological target: T2, human MSLN-R3-3 polypeptide; assay: ELISA on coated antigen, antibody 0.001 nM
Description: as §1

[13] = biological target: T2, human MSLN-R3-3 polypeptide; assay: ELISA on coated antigen, antibody 10 nM
Description: as §1

[14] = biological target: T3, human MSLN-R3-his protein; assay: ELISA on coated antigen, antibody 0.001 nM
Description: as §1

[15] = biological target: T1, human MSLN-R2-his protein; assay: ELISA on coated antigen, no antibody (column none)
Description: as §1

[16] = biological target: T3, human MSLN-R3-his protein; assay: ELISA on coated antigen, antibody 100 nM
Description: as §1

[17] = biological target: T1, human MSLN-R2-his protein; assay: ELISA on coated antigen, antibody 0.001 nM
Description: as §1

[18] = biological target: T3, human MSLN-R3-his protein; assay: ELISA on coated antigen, antibody 1 nM
Description: as §1

[19] = biological target: T2, human MSLN-R3-3 polypeptide; assay: ELISA on coated antigen, antibody 0.1 nM
Description: as §1

[20] = biological target: T2, human MSLN-R3-3 polypeptide; assay: ELISA on coated antigen, antibody 0.0001 nM
Description: as §1

[21] = biological target: T1, human MSLN-R2-his protein; assay: ELISA on coated antigen, antibody 0.1 nM
Description: as §1

[22] = biological target: T1, human MSLN-R2-his protein; assay: ELISA on coated antigen, antibody 0.0001 nM
Description: as §1

[23] = biological target: T3, human MSLN-R3-his protein; assay: ELISA on coated antigen, antibody 0.01 nM
Description: as §1

[24] = biological target: T2, human MSLN-R3-3 polypeptide; assay: ELISA on coated antigen, antibody 100 nM
Description: as §1

T3 sequence (Q13421 495-606): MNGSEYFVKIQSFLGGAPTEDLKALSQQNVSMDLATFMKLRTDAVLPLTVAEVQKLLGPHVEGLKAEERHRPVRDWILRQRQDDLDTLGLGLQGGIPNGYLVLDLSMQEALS
T1 sequence (Q13421 other isoform, or with tags, fused parts or gaps): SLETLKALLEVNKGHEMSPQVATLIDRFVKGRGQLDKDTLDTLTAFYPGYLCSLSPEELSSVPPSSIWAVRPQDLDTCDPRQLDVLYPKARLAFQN

OD450 [1] [OD450] | OD450 [2] [OD450] | OD450 [3] [OD450] | OD450 [4] [OD450] | OD450 [5] [OD450] | OD450 [6] [OD450] | OD450 [7] [OD450] | OD450 [8] [OD450] | OD450 [9] [OD450] | OD450 [10] [OD450] | OD450 [11] [OD450] | OD450 [12] [OD450] | OD450 [13] [OD450] | OD450 [14] [OD450] | OD450 [15] [OD450] | OD450 [16] [OD450] | OD450 [17] [OD450] | OD450 [18] [OD450] | OD450 [19] [OD450] | OD450 [20] [OD450] | Binder | also measured
0.12 | 0.06 | 2.04 | 0.05 | 0.05 | 0.05 | 2.43 | 0.06 | 2.63 | 0.05 | 0.06 | 0.06 | 0.06 | 0.05 | 0.06 | 0.07 | 0.06 | 0.05 | 0.06 | 0.05 | S009-F2.58.8 (antibody, human IgG1, kappa, V domains shown, Human-murine chimeric antibody: murine VH/VL on human IgG1 heavy and kappa light constant regions) VH: QVQLLQSGAELAKPGASVKLSCKASGYTFTSYWVHWVKQRPGQGLEWIGYINPNSGYTKYNQKFKDKATLTADKSSSTAYMQLSSLTYEDSAVYYCADHYYGSSRDYFDYWGQGTTLTVSS VL: QIVLTQSPAIMSASPGEKVTMTCSASSSVSYMYWYQQRPGSSPRLLIYDTSNLASGVPVRFSGSGSGTSYSLTISRMEAEDAATYYCQQWNSYPYTFGGGTKLEIKR | OD450 [21]: 0.63 OD450; OD450 [22]: 0.05 OD450; OD450 [23]: 0.05 OD450; OD450 [24]: 0.07 OD450
0.05 | 0.05 | 0.05 | 0.05 | 0.06 | 0.09 | 0.05 | 0.05 | 0.06 | 1.4 | 0.05 | 0.05 | 0.05 | 0.05 | 0.06 | 2.08 | 0.05 | 0.3 | 0.05 | 0.05 | S009-F2.23.12 (antibody, human IgG1, kappa, V domains shown, Human-murine chimeric antibody: murine VH/VL on human IgG1 heavy and kappa light constant regions) VH: QVQLQQPGTELVKPGASVKLSCKASGYTFTNYWMHWVKQRPGQGLEWIGNINPSNGGPYYNERFRSKATLTVDKSSSTAYMQLSSLTSEDSAVYYCARPYYGSSYGYFDYWGQGTTLTVSS VL: DIQMTQSPSSLSASLGGKVTITCKASQDINKYIAWYQHKPGKGPRLLIHYTSELQPGIPSRFSGNGSGRDYSFSISNLEPEDIATYYCLQYANPLRTFGGGTKLEIKR | OD450 [21]: 0.05 OD450; OD450 [22]: 0.05 OD450; OD450 [23]: 0.05 OD450; OD450 [24]: 0.06 OD450
0.05 | 0.05 | 0.05 | 0.05 | 0.06 | 0.05 | 0.05 | 0.05 | 0.06 | 0.05 | 0.05 | 0.05 | 0.05 | 0.05 | 0.06 | 0.06 | 0.05 | 0.05 | 0.05 | 0.05 | S009-F2.21.4 (antibody, human IgG1, kappa, V domains shown, Human-murine chimeric antibody: murine VH/VL on human IgG1 heavy and kappa light constant regions) VH: EVQLQQSGPELVKPGASVKIPCKASGYTFTDYNMDWVKQSHGKSLEWIGDINPNNGGSIYNQRFKGKATLTVDKSSSTAYMELRSLTSEDSAVYYCARRAYYSTGYFDVWGTGTTVTVSS VL: QIVLTQSPALMSASPGEKVTITCSASSSISYMHWFQQKPGTSPKLWIYSTSTLASGVPARFSGSGSGTSYSLTISRMEAEDTATYYCQQRSSYPPTFGGGTKLEIKR | OD450 [21]: 0.05 OD450; OD450 [22]: 0.05 OD450; OD450 [23]: 0.05 OD450; OD450 [24]: 0.05 OD450
0.05 | 0.05 | 0.05 | 0.05 | 0.05 | 0.05 | 0.05 | 0.05 | 0.06 | 0.05 | 0.05 | 0.05 | 0.05 | 0.05 | 0.06 | 0.06 | 0.05 | 0.05 | 0.05 | 0.05 | S009-F2.38.12 (antibody, human IgG1, kappa, V domains shown, Human-murine chimeric antibody: murine VH/VL on human IgG1 heavy and kappa light constant regions) VH: QVQLQQPGTELVKPGASVKLSCKASGYTFTSYWMHWVKQRPGQGLEWIGNINPSNGGTNYNEKIKNKATLTVDKSSSTAYMQLSSLTSEDSAVYYCARWNYYGNYPFDYWGQGTTLTVSS VL: DIVMTQSQKFMSTTVGDRVSITCKASQNVGTAVAWYQQKPGQSPKLLIYSASNRYTGVPDRFTGSGSGTDFTLTISNMQSEDLADYFCQQYSSYPLTFGAGTKLELKR | OD450 [21]: 0.05 OD450; OD450 [22]: 0.05 OD450; OD450 [23]: 0.04 OD450; OD450 [24]: 0.06 OD450
0.05 | 0.06 | 0.05 | 0.05 | 0.05 | 0.05 | 0.05 | 0.05 | 0.06 | 0.05 | 0.05 | 0.06 | 0.06 | 0.05 | 0.06 | 0.06 | 0.05 | 0.05 | 0.06 | 0.05 | S009-F2.47.1 (antibody, human IgG1, kappa, V domains shown, Human-murine chimeric antibody: murine VH/VL on human IgG1 heavy and kappa light constant regions) VH: QVQLQQPGAELVKPGASVKLSCKASGYTFTSYWMHWVKQRPGQGLEWIGMIHPNSGSTNYNEKFKSKATLTVDKSSSTAYMQLSSLTSEDSAVYYCARPVVPYWYFDVWGTGTTVTVSS VL: DIVMTQSQKFMSTTVGDRVSITCKASQNVGTAVAWYQQKPGQSPKLLIYSASNRYTGVPDRFTGSGSGTDFTLTISNMQSEDLADYFCQQSSSYPLTFGAGTKLELKR | OD450 [21]: 0.05 OD450; OD450 [22]: 0.05 OD450; OD450 [23]: 0.05 OD450; OD450 [24]: 0.06 OD450
0.05 | 0.05 | 0.05 | 0.05 | 0.05 | 0.07 | 0.05 | 0.05 | 0.06 | 0.98 | 0.05 | 0.05 | 0.05 | 0.05 | 0.06 | 1.84 | 0.05 | 0.25 | 0.05 | 0.05 | S009-F2.39.3 (antibody, human IgG1, kappa, V domains shown, Human-murine chimeric antibody: murine VH/VL on human IgG1 heavy and kappa light constant regions) VH: QVQLQQPGTELVKPGASVKLSCKASGYTFTNYWMHWVKQRPGQGLEWIGNINPSSGDSYYNERFMSKAKMTVDKSSSTAYMQLSSLTSEDSAVYYCARSGGLWLAFWGPGTLVTVSA VL: DIVMTQSPSSLAMSVGQKVTMSCKSSQTLLNSVSQNNYLAWYQQKPGQSPTLLVYFASTRESGVPDRFIGGGSGTDFTLTISSVQAEDLADYFCQQHYRTPYTFGGGTNLEIKR | OD450 [21]: 0.05 OD450; OD450 [22]: 0.05 OD450; OD450 [23]: 0.05 OD450; OD450 [24]: 0.05 OD450
0.06 | 0.07 | 0.06 | 0.05 | 0.06 | 0.05 | 0.07 | 0.06 | 0.17 | 0.07 | 0.05 | 0.06 | 0.07 | 0.05 | 0.07 | 0.13 | 0.06 | 0.06 | 0.06 | 0.06 | S009-F2-56.12 (antibody, human IgG1, kappa, V domains shown, Human-murine chimeric antibody: murine VH/VL on human IgG1 heavy and kappa light constant regions) VH: DVQLQESGPGMVKPSQSLSLTCTVTGYSITSGYDWHWIRHFPGNKLEWMGYISYSGSTNYNPSLKSRISITHDTSKNHFFLKLKSVTTEDTATYYCARGTGPDYWGQGTTLTVSS VL: DIVMTQSQKFMSTSVGDRVSITCKASQNVRTAVAWYQQKPGQSPKALIHLPSNRHTGVPDRFTGSGSGTDFTLTISNVQSEDLADYFCLQHWNYPLTFGGGTKLEIKR | OD450 [21]: 0.06 OD450; OD450 [22]: 0.06 OD450; OD450 [23]: 0.05 OD450; OD450 [24]: 0.14 OD450
